From US20170306053A1 (Astellas, published 2017)
Like-named read-outs stand apart in the source and are kept apart here.

B1: TLR2-IgG (anti-human TLR2 antibody of IgG type) (antibody, V domains shown)
VH: QVQLQESGPGLVKPSETLSLTCTVSGGSISSFYWTWIRQPPGKGLEWIGYIHYSGSTNYNPSLKSRVTISVDTSKNQFSLTLSSVTAADTAVYYCARRRSMNWFDPWGQGTLVIVSS
VL: AIQMTQSPSSLSASVGDRVTITCRASQVIRNDLGWYQQKPGKAPKFLIYAASSLQSGVPSRFSGSGSGTDFTLTISSLQPEDFATYYCLQDYNYPLTFGGGTKVEIKR
notes: it says variable regions and human Iggamma1 / Igkappa constant regions as used in tandem form a
B2: TLR4-IgG (anti-human TLR4 antibody of IgG type) (antibody, V domains shown)
VH: EVQLVESGGGLVQPGGSLRLSCAASGFTFDTYAMHWVRQAPGKGLEWVAGISWNSGNIGYADSVKGRFTISRDNSKNTLYLQMNSLRAEDTAVYYCAKDWDNWNLFDYWGQGTLVTVSS
VL: DIQMTQSPSSLSASVGDRVTITCRASQSISSWLAWYQQKPGKAPKLLIYKASSLESGVPSRFSGSGSGTDFTLTISSLQPEDFATYYCQQYSSYSWTFGQGTKVEIKR
notes: as for B1
B3: Tandem form a (protease recognition sequence SEQ ID NO: 5; light chain linker SEQ ID NO: 9) (bispecific antibody)
chain 1: not shown
chain 2: AIQMTQSPSSLSASVGDRVTITCRASQVIRNDLGWYQQKPGKAPKFLIYAASSLQSGVPSRFSGSGSGTDFTLTISSLQPEDFATYYCLQDYNYPLTFGGGTKVEIKRTVAAPSVFIFPPSDEQLKSGTASVVCLLNNFYPREAKVQWKVDNALQSGNSQESVTEQDSKDSTYSLSSTLTLSKADYEKHKVYACEVTHQGLSSPVTKSFNRGEC
chain 3: not shown

Tests used:
[1] = target: T1, human TLR2 protein (R&D systems Co., 2616 TR/CF) (human, UniProt O60603 21-590); experiment: SPR (Biacore T200), human TLR2 captured on anti-His IgG, antibody as analyte, bivalent analyte model
T1 construct: Bought protein captured on an anti-His IgG chip; not shown: His tag implied by capture on anti-His IgG
Method: In order to evaluate the binding activity of the tandem form a prepared in Example 1 to the human TLR2, SPR analysis was performed. The tandem form c and the TLR2-IgG were used as the reference antibody. For SPR analysis, Biacore T200 (GE Healthcare Japan Corporation) was used. Anti-His IgG (attached to His Capture Kit) was immobilized on CMS sensor chip using His Capture Kit (GE Healthcare Japan Corporation, 28-9950-56) and Amine Coupling Kit (GE Healthcare Japan Corporation, BR-1000-50). […] Thereafter, a solution (eight step, two fold serial dilution in the concentration range of final concentration from 100 nM to 0.781 nM) obtained by serially diluting each purified antibody (tandem form a, tandem form c, or TLR 2-IgG) with HBS-EP+buffer was added at a flow rate of 50 μL/min for 2 minutes, and the binding between the purified antibody and TLR 2 was measured. Next, HBS-EP+buffer was added at a flow rate of 50 μL/min for 5 minutes, and dissociation of the purified antibody and the human TLR2 was measured. Bivalent analyte model, Rmax was analyzed by Fit local, a binding rate constant (kₐ) and a dissociation rate constant (kd) were calculated, and kd was divided by kₐ to calculate the binding dissociation constant (KD).

[2] = target: human TLR2 (endogenous, on U937 cells) (human, UniProt O60603 21-784); experiment: cell-based or functional assay
[3] = target: T2, human TLR4/MD2 (on cells) (human, UniProt O00206 24-839; Q9Y6Y9 19-160); experiment: cell-based or functional assay
[4] = target: T2, human TLR4/MD2 (on cells); experiment: cell-based or functional assay; remark: listed apart in the source
[5] = target: T2, human TLR4/MD2 (on cells); experiment: cell ELISA on human TLR4/MD2 expressing HEK 293 cells
Method: In order to evaluate the binding activity of the tandem form a (bispecific antibody format having the anti-human TLR2 antibody portion on the outer side and the anti-human TLR4 antibody portion on the inner side) prepared in Example 1 to the human TLR4, cell ELISA was performed. As reference antibodies, the tandem form c and the TLR4-IgG were used. Human TLR4/MD2 expressing HEK 293 cells were seeded at 1×10⁴ cells/well in a BD Bio Coat poly D-lysine 384 well plate (Becton Dickinson Co., Ltd.) using an α-MEM culture medium (Life Technologies Co., Ltd.) and incubated overnight. […] Twenty minutes later, 25 μL of 1 M sulfuric acid was added to stop the color reaction, and the color intensity thereof was measured with Safire II (Tecan Co., Ltd.) to evaluate the binding activity of the antibody. Using the obtained measurement results, 50% effective concentration (EC₅₀) of each antibody was calculated from 4 parameter logistic curve regression by statistical analysis software GraphPad Prism (GraphPad Software Co., Ltd.).

T2 sequence (O00206 24-839, chain 1 of 2): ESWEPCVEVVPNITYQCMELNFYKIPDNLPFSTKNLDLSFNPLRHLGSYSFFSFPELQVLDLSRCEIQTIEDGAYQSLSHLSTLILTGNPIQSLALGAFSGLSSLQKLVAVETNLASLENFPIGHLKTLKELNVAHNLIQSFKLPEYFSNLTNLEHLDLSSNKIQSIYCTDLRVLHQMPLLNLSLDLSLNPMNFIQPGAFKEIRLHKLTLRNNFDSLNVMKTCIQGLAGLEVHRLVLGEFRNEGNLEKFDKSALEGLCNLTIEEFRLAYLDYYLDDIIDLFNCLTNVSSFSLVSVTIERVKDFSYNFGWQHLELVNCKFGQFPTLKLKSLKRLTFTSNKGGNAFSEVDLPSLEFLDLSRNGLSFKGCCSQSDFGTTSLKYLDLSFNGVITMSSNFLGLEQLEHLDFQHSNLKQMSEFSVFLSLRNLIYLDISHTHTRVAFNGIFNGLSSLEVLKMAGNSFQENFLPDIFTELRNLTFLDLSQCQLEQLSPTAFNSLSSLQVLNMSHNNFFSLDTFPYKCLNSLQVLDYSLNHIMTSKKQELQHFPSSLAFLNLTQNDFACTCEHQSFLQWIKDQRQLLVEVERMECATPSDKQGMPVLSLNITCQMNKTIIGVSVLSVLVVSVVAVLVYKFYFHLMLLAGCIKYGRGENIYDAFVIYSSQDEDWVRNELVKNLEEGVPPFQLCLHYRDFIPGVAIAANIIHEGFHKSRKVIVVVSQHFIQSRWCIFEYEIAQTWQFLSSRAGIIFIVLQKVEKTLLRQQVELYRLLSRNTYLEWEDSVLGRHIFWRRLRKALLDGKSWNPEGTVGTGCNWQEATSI
T2 sequence (Q9Y6Y9 19-160, chain 2 of 2): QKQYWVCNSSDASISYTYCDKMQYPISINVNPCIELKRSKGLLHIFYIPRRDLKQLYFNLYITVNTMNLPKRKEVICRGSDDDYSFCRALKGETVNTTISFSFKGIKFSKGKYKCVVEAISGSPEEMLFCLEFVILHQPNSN
T1 sequence (O60603 21-590): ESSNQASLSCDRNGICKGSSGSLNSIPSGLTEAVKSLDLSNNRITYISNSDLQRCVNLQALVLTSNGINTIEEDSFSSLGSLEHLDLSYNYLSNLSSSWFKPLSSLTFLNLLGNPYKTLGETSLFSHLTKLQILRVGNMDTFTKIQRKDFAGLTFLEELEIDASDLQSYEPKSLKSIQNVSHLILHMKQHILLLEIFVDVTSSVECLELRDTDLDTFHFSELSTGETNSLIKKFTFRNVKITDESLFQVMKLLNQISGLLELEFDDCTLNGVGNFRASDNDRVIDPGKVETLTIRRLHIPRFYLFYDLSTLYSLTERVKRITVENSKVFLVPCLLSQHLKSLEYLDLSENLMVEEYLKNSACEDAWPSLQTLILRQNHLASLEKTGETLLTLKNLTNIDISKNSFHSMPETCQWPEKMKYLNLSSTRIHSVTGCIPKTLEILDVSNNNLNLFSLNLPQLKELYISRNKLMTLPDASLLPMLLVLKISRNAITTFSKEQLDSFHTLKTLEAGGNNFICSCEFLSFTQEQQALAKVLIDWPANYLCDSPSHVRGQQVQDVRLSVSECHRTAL
human TLR2 (endogenous, on U937 cells), sequence (O60603 21-784): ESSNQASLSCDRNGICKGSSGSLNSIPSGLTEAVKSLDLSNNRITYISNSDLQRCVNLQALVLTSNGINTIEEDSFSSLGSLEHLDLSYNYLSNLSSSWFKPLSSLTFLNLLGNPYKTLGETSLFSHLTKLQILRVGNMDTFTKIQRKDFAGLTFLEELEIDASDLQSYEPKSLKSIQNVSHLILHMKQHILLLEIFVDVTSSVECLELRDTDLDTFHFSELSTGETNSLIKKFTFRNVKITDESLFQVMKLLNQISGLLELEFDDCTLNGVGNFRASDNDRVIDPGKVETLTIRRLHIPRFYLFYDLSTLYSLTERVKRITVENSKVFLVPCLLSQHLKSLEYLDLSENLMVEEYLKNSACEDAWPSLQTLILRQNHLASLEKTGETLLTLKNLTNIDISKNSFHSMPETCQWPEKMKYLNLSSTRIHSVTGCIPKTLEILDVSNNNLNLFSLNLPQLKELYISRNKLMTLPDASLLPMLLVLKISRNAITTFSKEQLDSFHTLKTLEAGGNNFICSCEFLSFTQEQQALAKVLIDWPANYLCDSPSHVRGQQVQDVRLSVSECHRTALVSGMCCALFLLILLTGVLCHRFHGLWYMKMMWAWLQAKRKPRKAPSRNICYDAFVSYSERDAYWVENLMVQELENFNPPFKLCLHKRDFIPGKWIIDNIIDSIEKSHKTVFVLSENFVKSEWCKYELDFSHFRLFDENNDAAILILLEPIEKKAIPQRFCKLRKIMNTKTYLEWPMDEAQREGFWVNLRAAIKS

Binder	Kd [1]	IC50 (read off the curve); inhibition of Pam2CSK4-induced IL-6 production in U937 cells [2]	IC50 (M), Neutralization Activity to Human TLR4 (LPS-induced IL-6 production inhibition, U937 cells) [3]	IC50 (M), Neutralization Activity to Human TLR4 (LPS-induced IL-6 production inhibition, U937 cells) [4]	EC50 [5]
B1	2.69 nM	~0.1 nM			
B2			2.2e-12 M	2.2e-12 M	0.38 nM
B3	2.32 nM				
